Each binder was assayed against acetylcholine receptor (assay: SPR, AchR immobilised on CM5 chip, peptide 10 uM).
Binder RPPDRR [6mer-2-619] has a Binding affinity (RU) of 26 RU. For RHTGRR [6mer-2-620], the Binding affinity (RU) was 33 RU. Work on RHEPKR [6mer-2-621] yielded a Binding affinity (RU) of 32 RU. RYTNKR [6mer-2-622] gave a Binding affinity (RU) of 13 RU. In the case of KHAHRR [6mer-2-623], the Binding affinity (RU) is reported as 13 RU. For KPPIRK [6mer-2-624], the Binding affinity (RU) was 33 RU. With RFPDKK [6mer-2-625] the Binding affinity (RU) was 33 RU. Work on KNSEKK [6mer-2-626] yielded a Binding affinity (RU) of 33 RU. With KKTARR [6mer-2-627] the Binding affinity (RU) was 33 RU. Work on RKSFKR [6mer-2-628] yielded a Binding affinity (RU) of 30 RU. RFCWKK [6mer-2-629] showed a Binding affinity (RU) of 32 RU. RYAFRR [6mer-2-630] gave a Binding affinity (RU) of 27 RU. With KYCMKR [6mer-2-631] the Binding affinity (RU) was 16 RU. KYDIKR [6mer-2-632] was tested, and the Binding affinity (RU) was 12 RU. For KYAVKR [6mer-2-633], the Binding affinity (RU) was 17 RU. Binder RYEHRK [6mer-2-634] has a Binding affinity (RU) of 33 RU. For KECVRR [6mer-2-635], the Binding affinity (RU) was 11 RU. KMAPKR [6mer-2-636] showed a Binding affinity (RU) of 21 RU. RPPVRK [6mer-2-637] was tested, and the Binding affinity (RU) was 32 RU. In the case of RCWAKR [6mer-2-638], the Binding affinity (RU) is reported as 30 RU. Binder KHTVKK [6mer-2-639] has a Binding affinity (RU) of 23 RU. With KFKKKR [6mer-2-640] the Binding affinity (RU) was 21 RU. REEFRR [6mer-2-641] showed a Binding affinity (RU) of 12 RU. In the case of KTENKK [6mer-2-642], the Binding affinity (RU) is reported as 16 RU. KANPKK [6mer-2-643] showed a Binding affinity (RU) of 12 RU. Work on REPNRR [6mer-2-644] yielded a Binding affinity (RU) of 12 RU. RIKVKK [6mer-2-645] showed a Binding affinity (RU) of 15 RU. RAAPRR [6mer-2-646] was tested, and the Binding affinity (RU) was 32 RU. Work on KTEPKR [6mer-2-647] yielded a Binding affinity (RU) of 19 RU. Binder RYPDRK [6mer-2-648] has a Binding affinity (RU) of 23 RU. With KFDVRK [6mer-2-649] the Binding affinity (RU) was 31 RU. For RFKARK [6mer-2-650], the Binding affinity (RU) was 18 RU. KNADRR [6mer-2-651] gave a Binding affinity (RU) of 21 RU. With RTTMRK [6mer-2-652] the Binding affinity (RU) was 16 RU. With KIEMKR [6mer-2-653] the Binding affinity (RU) was 20 RU. In the case of RMPEKR [6mer-2-654], the Binding affinity (RU) is reported as 20 RU. Work on KIWFRR [6mer-2-655] yielded a Binding affinity (RU) of 31 RU. KADPRR [6mer-2-656] showed a Binding affinity (RU) of 11 RU. RKHERK [6mer-2-657] showed a Binding affinity (RU) of 32 RU. For RYWVKK [6mer-2-658], the Binding affinity (RU) was 23 RU. Binder KIPNKR [6mer-2-659] has a Binding affinity (RU) of 22 RU. Work on RHKDRK [6mer-2-660] yielded a Binding affinity (RU) of 16 RU. RMKAKK [6mer-2-661] gave a Binding affinity (RU) of 29 RU. For KAHPKK [6mer-2-662], the Binding affinity (RU) was 11 RU. In the case of KFAGRR [6mer-2-663], the Binding affinity (RU) is reported as 24 RU. Work on KCCWKK [6mer-2-664] yielded a Binding affinity (RU) of 11 RU. KCAERR [6mer-2-665] gave a Binding affinity (RU) of 18 RU. KPMDRR [6mer-2-666] gave a Binding affinity (RU) of 25 RU. Work on KHDMRR [6mer-2-667] yielded a Binding affinity (RU) of 25 RU. RFCNKK [6mer-2-668] was tested, and the Binding affinity (RU) was 13 RU. With KNMWRK [6mer-2-669] the Binding affinity (RU) was 15 RU. RKWHKR [6mer-2-670] was tested, and the Binding affinity (RU) was 33 RU. For RDWIRR [6mer-2-671], the Binding affinity (RU) was 27 RU. KIDDRK [6mer-2-672] showed a Binding affinity (RU) of 20 RU. For RFCGRK [6mer-2-673], the Binding affinity (RU) was 23 RU. In the case of KKWERK [6mer-2-674], the Binding affinity (RU) is reported as 26 RU. Binder RMKWRK [6mer-2-675] has a Binding affinity (RU) of 14 RU. For KCTAKK [6mer-2-676], the Binding affinity (RU) was 14 RU. Binder RENWKK [6mer-2-677] has a Binding affinity (RU) of 28 RU. Work on KEWWRR [6mer-2-678] yielded a Binding affinity (RU) of 32 RU. Binder RYSAKK [6mer-2-679] has a Binding affinity (RU) of 20 RU. Binder KNHGKR [6mer-2-680] has a Binding affinity (RU) of 15 RU. Work on RDTWRR [6mer-2-681] yielded a Binding affinity (RU) of 33 RU. In the case of RNMERR [6mer-2-682], the Binding affinity (RU) is reported as 33 RU. In the case of KTEIRK [6mer-2-683], the Binding affinity (RU) is reported as 33 RU. RYTMKK [6mer-2-684] was tested, and the Binding affinity (RU) was 14 RU. KFHNRK [6mer-2-685] gave a Binding affinity (RU) of 15 RU. With KTWEKK [6mer-2-686] the Binding affinity (RU) was 21 RU. In the case of KADGRK [6mer-2-687], the Binding affinity (RU) is reported as 16 RU. Work on RPMFRK [6mer-2-688] yielded a Binding affinity (RU) of 13 RU. Work on RDKERR [6mer-2-689] yielded a Binding affinity (RU) of 24 RU. In the case of KFTMRK [6mer-2-690], the Binding affinity (RU) is reported as 13 RU. Work on RHKMRK [6mer-2-691] yielded a Binding affinity (RU) of 15 RU. KYTNRR [6mer-2-692] was tested, and the Binding affinity (RU) was 29 RU. KNTIRR [6mer-2-693] was tested, and the Binding affinity (RU) was 16 RU. Binder KDSIRK [6mer-2-694] has a Binding affinity (RU) of 22 RU. With KCWWRR [6mer-2-695] the Binding affinity (RU) was 28 RU. KFTKKK [6mer-2-696] gave a Binding affinity (RU) of 20 RU.

From patent US20250011363A1, “OPTIMIZED SHORTENED PEPTIDE THAT BINDS TO ACETYLCHOLINE RECEPTOR, AND USE THEREOF” (SKINMED CO., LTD., priority 2021, published 2025)
